Results as given in the RNAGym collection of RNA variant scans (doi:10.7554/elife.80360).

B1: Hairpin Ribozyme (parent)
chain: GUCCUCUUUCACGUGCGCGUGAAAGAGAGAAGUGAACCAGAGAAACACACGUUGUGGUAUAUUACCUGGUA

Variants of: B1
Test: self-cleavage, relative activity (ratio to wild type); higher = more cleavage; co-transcriptional

Variant | self-cleavage
C16G A35C | 0.659
A49C A61U | 0.104
C10G U33G | 0.25
U5A A36G | 0.427
G1A C66A | 0.164
A47G G69U | 0.118
A23G A71G | 0.975
A41C A61G | 0.304
G17A U55A | 0.0892
C4U A45C | 0.122
C4U A26G | 0.221
G13U A43U | 0.127
A30C A45G | 0.194
U53G U67A | 0.182
A23U A39G | 0.298
G42C A71U | 0.142
U5C G15C | 0.469
U9A U20C | 0.773
G13U A61U | 0.181
U14G G32A | 0.191
G21C A36C | 0.534
G29C A45G | 0.106
U53A U55G | 0.389
U8C A22U | 0.344

Variant | self-cleavage
A11G A30C | 0.146
C4U G17A | 0.263
C6U A36U | 0.54
C18G A45C | 0.152
A28G C50U | 0.439
A22U A43U | 0.136
A30C A45U | 0.0541
G34C C46G | 0.0437
U2C A11G | 0.172
G25A U55A | 0.149
A47C A49C | 0.204
C37U U53G | 0.364
G15C A59U | 0.224
A31U A35C | 0.185
C12U U53C | 0.862
C3A G15C | 0.65
G27U G42A | 0.149
G40U A44U | 0.142
C46A G56U | 0.077
G21C U53C | 0.953
A24U G57A | 0.196
A35U U70G | 0.874
C38A U58G | 0.204
C6A C12U | 0.512

Variant | self-cleavage
U2C U63G | 0
C46G U52A | 0.189
G21U A44G | 0.0823
A64U C66A | 0.156
A30G C65G | 0.204
G1C G40A | 0.0839
G27C G69U | 0.162
C4U G56A | 0.161
G56C A61C | 0.109
U5C A41G | 0.569
A22C A41G | 0.704
C16G A35U | 0.693
U53G U70G | 0.848
A36G C65U | 0.267
A45C C50A | 0.209
G17C G29U | 0.134
A44U C50U | 0.252
G19U A31G | 0.624
G21U G68U | 0.32
C48A U58G | 0.165
C16G A43C | 0.156
G42U G54A | 0.197
C37U U53A | 0.775
A44G G54C | 0.119

Variant | self-cleavage
A28G U52G | 0.948
A11G A28U | 0.447
U7G U33C | 0.113
C6A U7C | 0.609
A22C U52G | 0.726
G29A G57C | 0.109
G21A C37A | 0.269
U20G C48A | 0.203
C18U G56C | 0.179
A11C C12G | 0.903
U52G C65G | 0.266
G15C A47U | 0.142
U60C U63G | 0.136
A31U U58C | 0
G17U G42A | 0.152
A36U C65A | 0.502
G21A U58G | 0.554
G51C U58G | 0.433
G1A C3A | 0.115
A30U A39G | 0.0918
A36C U60C | 0.794
A35G C48A | 0.198
G17U U33C | 0.0633
A26U G68A | 0.23

Variant | self-cleavage
C3A U67C | 0.155
U53C U60C | 1.5
A64C U70G | 0.127
A36G A47G | 0.106
C4A C66A | 0.146
C12U A35G | 0.938
A24G G34C | 1.34
A41U G69U | 0.348
U8G A39U | 0.288
G17A A28G | 1.14
G68C U70G | 0.576
A28C A47C | 0.0848
A41C A47U | 0.229
C12U A22G | 0.748
C10A A23G | 0.6
C16G A44G | 0.0556
C3U G15C | 0.727
U9C G15C | 0.977
U8A U52G | 0.518
A28G A45G | 0.242
G27U A59C | 0.0836
U2A G15C | 0.391
G25C C48G | 0.127
U62C U70G | 0.126

Variant | self-cleavage
A35C U70C | 1.01
U53G G68U | 0.187
A23G A24U | 0.651
A22G G25U | 0.595
U5G A61C | 0.112
A11G C16A | 0.825
G1A G25A | 0.245
A30U G42A | 0.11
U2G A41C | 0.566
A41U G54U | 1.19
A24G G32A | 0.14
A36C C48U | 0.0598
U20C U62G | 0.116
G42C G56C | 0.159
U5A C16U | 0.475
G29C G56C | 0.0545
G34A A49G | 0.754
A28G C66U | 0.654
A43C G68U | 0.0938
U2C G17C | 0.168
C10G A28C | 0.306
C18A G40C | 0.0959
G21C C65A | 0.777
U7C A23C | 0.455

Variant | self-cleavage
A43C A64U | 0.198
G68C | 0.212
U14C G56U | 0.126
U8A A22U | 0.891
U62G U67C | 0.133
G15A A23C | 0.877
G1A C46U | 0.225
U53A G56A | 0.0996
G19C G32C | 0.0926
C10U U52C | 0.949
U2G U9C | 0.231
U2C U5C | 0.0555
U5A A61C | 0.088
A11G C38A | 0.213
C6A A24G | 0.45
A11G G27A | 0.353
A35U A47C | 0.258
C10G U33C | 0.0987
C18A A45U | 0.11
A31C G56C | 0.115
A23G U70A | 0.741
A36G | 1.03
C18A U62G | 0.138
G54A G69A | 0.137

Variant | self-cleavage
A44C C50G | 0
A45G C50U | 0.174
A43U A71C | 0.396
U55C G69C | 0.183
C16G G51C | 0.564
U53G A59U | 0.119
A26U G32C | 0.128
C48G G54C | 0.189
A28U G40C | 0.0881
G15C G17U | 0.959
G40A C50G | 0.243
C37U C66A | 0.0721
U8G C37A | 0.218
U33C C50A | 0.114
G1C C48G | 0.086
G25U G54A | 0.496
U2A C48U | 0.104
A44C C48G | 0.151
C6U A22G | 0.796
A23C U55G | 0.359
C38A G57A | 0.0809
A11C A44C | 0.0983
U14G U70G | 0.659
U52C G54U | 0.327

Variant | self-cleavage
C12G A44U | 0.147
A28G C46A | 0.199
A31G G57U | 0.23
C37U A47C | 0.16
A31C U33G | 0.0823
A35U G40A | 0.154
U8C G69C | 0.164
C16A C46U | 0.0901
C3G A49G | 0.148
C48A A61U | 0.163
G15U A47G | 0.116
A49G U55C | 1.17
A35U A71U | 0.978
C6A G56A | 0.117
C16U A26G | 0.959
A26C U62G | 0.0946
G54A A64G | 0.403
G27A A35U | 0.261
C38A U52G | 0.0831
G19A U63G | 0.2
G54U G56U | 0.203
U7A A11G | 0.855
U5A A47G | 0.102
A35U A43U | 0.0408

Variant | self-cleavage
G54A U63G | 0.172
G40A A61U | 0.177
G13C A35G | 0.801
U9C C18U | 1.02
G15U U58G | 0.711
A30U A36U | 0.0371
U55A | 0.258
U55G G68U | 0.139
G21A A49G | 0.469
A45C A59G | 0.208
U7C C37U | 0.494
C4U U63G | 0.103
C12A A36C | 0.523
U55G A59U | 0.156
U20G C38U | 0.542
A11C G13C | 0.503
G25A G42C | 0.182
U9A U63G | 0.151
C16U C65U | 0.443
G51C A61U | 0.196
U5A A11C | 0.281
U5A C12G | 0.266
G56A G68U | 0.146
U2A G19U | 0.244

Variant | self-cleavage
G25C G51U | 0.624
G29A G68C | 0.143
A24U U33A | 0.11
G40U G56C | 0.147
U55C G69U | 0.159
C46U | 0.149
U7C A47C | 0.205
A23G G25C | 0.521
A44U G56A | 0.191
C16U U70A | 1.03
A24C U62C | 0.297
A43C A45C | 0.153
U52A A61U | 0.094
C6G A23U | 0.344
U7A C12G | 0.662
C4A G56U | 0.166
G25U A26C | 0.21
C16A U70A | 0.83
A26G A47U | 0.152
C3U A59U | 0.205
C18A C50A | 0.314
G29C A44C | 0.126
G15A A24C | 0.899
C37G C50U | 0.214

Variant | self-cleavage
C4G G56U | 0.148
C18U G34C | 1.44
G42C A44C | 0.0939
A41U A44G | 0.153
C10G A31G | 0.576
A23U U60A | 0.819
C12G A30G | 0.247
U55A G68C | 0.098
C37A C48G | 0.143
G29A G40U | 0.0938
G13U C16G | 0.655
C4U A41G | 0.299
A23G A24C | 0.648
A36U A44U | 0.285
A43U A44G | 0.163
U55A U70A | 0.181
U33G | 0.127
A26G A30G | 0.0496
C4U A24C | 0.33
U62A C65U | 0.204
C12A A41G | 0.736
A39C G42A | 0.191
G25A G54U | 0.392
A24U G69U | 0.192

Variant | self-cleavage
G17A C18U | 1.12
C3U G27C | 0.177
G19U U58C | 0.994
U33G A43G | 0.282
C16A G19A | 0.991
A22G A35G | 0.905
C50G G56A | 0.226
C4A U52C | 0.182
G25C A43G | 0.116
U2C A43C | 0.0996
A47U G68U | 0.224
G27U A49C | 0.225
G25U G56C | 0.17
C6U A11C | 0.411
C46A G69A | 0.13
A39U C66U | 0.213
G51A U55A | 0.34
A45U U63C | 0.287
C46G G54C | 0.0768
A28C A47G | 0.0559
U9A G68U | 0.159
C48U C66U | 0.194
U2A C4A | 0.165
A24U U33G | 0.135

Variant | self-cleavage
U55G U60G | 0.185
A22G G29A | 0.121
C10A A30G | 0.131
U55G U60A | 0.0917
G21U G25A | 0.252
G34A C37U | 0.915
G29U U58G | 0.168
U14C C65U | 0.295
C50U U62C | 0.0808
C10A A22U | 0.632
A45U U67G | 0.131
A26U A61G | 0.187
U9A G15C | 0.727
G15C A23C | 0.868
C3G G29A | 0.148
U14A G21C | 0.467
A35G U58C | 1.11
C10G A39C | 0.357
U14G C65U | 0.316
G57A A61C | 0.155
A36G A44U | 0.0711
C6A U33C | 0.0869
